From the Human Domainome abundance scans (Beltran et al. 2025)
± gives the uncertainty stated by the source.

B1: Chromodomain-helicase-DNA-binding protein 7, residues 2564 to 2605; numbered along this chain, Q9P2D1 (parent)
chain: DPDTRIPVINLEDGTRLVGEDAPKNKDLVEWLKLHPTYTVDM

Variants of: B1
Assay: abundance fitness (aPCA) (normalised: wild type 0, dead -1); higher = more abundant; growth selection in yeast, the domain comes from the species named
Details: Homo sapiens

Variant | abundance fitness
V29S | 0.063 ± 0.084
V29C | -0.087 ± 0.081
V29D | -0.022 ± 0.087
V29E | 0.052 ± 0.1
V29A | 0.11 ± 0.068
V29W | -0.416 ± 0.09
V29P | 0.063 ± 0.083
V29M | -0.095 ± 0.12
V29N | 0.126 ± 0.053
V29G | -0.081 ± 0.064
V29L | -0.109 ± 0.053
V29I | -0.15 ± 0.064
E30W | -0.529 ± 0.11
E30L | -0.497 ± 0.056
E30T | -0.022 ± 0.078
E30D | 0.008 ± 0.063
E30F | -0.591 ± 0.12
E30M | -0.313 ± 0.1
E30N | -0.065 ± 0.074
E30I | -0.608 ± 0.12
E30V | -0.391 ± 0.068
E30G | -0.145 ± 0.056
E30K | -0.333 ± 0.31
E30Q | -0.187 ± 0.13

Variant | abundance fitness
E30S | -0.023 ± 0.059
E30A | 0.027 ± 0.12
E30R | -0.277 ± 0.072
E30P | -0.345 ± 0.33
E30H | -0.262 ± 0.095
E30C | -0.253 ± 0.072
D13H | -1.01 ± 0.3
D13G | -0.268 ± 0.078
D13N | 0.046 ± 0.087
D13L | -0.627 ± 0.27
D13V | -0.421 ± 0.071
D13A | -0.183 ± 0.18
D27H | -0.224 ± 0.076
D27N | 0.019 ± 0.056
D27K | -0.517 ± 0.18
D27V | -0.448 ± 0.068
D27G | -0.38 ± 0.052
D27F | -0.405 ± 0.077
D27L | -0.678 ± 0.076
D27C | -0.175 ± 0.089
D27S | -1.11 ± 0.3
D27M | -0.727 ± 0.082
D27Y | -0.417 ± 0.1
D27P | -0.88 ± 0.1

Variant | abundance fitness
D27R | -0.649 ± 0.073
D27I | -0.438 ± 0.12
D27T | -0.526 ± 0.094
D27W | -0.563 ± 0.073
D27E | -0.23 ± 0.1
D27A | -0.4 ± 0.069
K26F | -0.486 ± 0.11
K26D | -0.258 ± 0.076
K26Y | -0.481 ± 0.072
K26A | -0.068 ± 0.072
K26M | -0.278 ± 0.061
K26R | -0.081 ± 0.047
K26T | -0.361 ± 0.078
K26S | -0.106 ± 0.054
K26I | -0.255 ± 0.068
K26Q | -0.039 ± 0.16
K26E | 0.154 ± 0.16
K26W | -0.639 ± 0.1
K26L | -0.559 ± 0.074
K26H | 0.203 ± 0.48
K26G | -0.208 ± 0.053
K26C | -0.166 ± 0.056
K26N | -0.276 ± 0.069
K26P | -0.56 ± 0.08

Variant | abundance fitness
K26V | -0.166 ± 0.059
G14R | -0.168 ± 0.074
G14T | -0.275 ± 0.14
G14A | -0.115 ± 0.08
G14M | 0.114 ± 0.071
G14W | -0.084 ± 0.29
G14L | -0.424 ± 0.089
G14F | -0.277 ± 0.16
G14S | -0.141 ± 0.071
G14C | -0.226 ± 0.22
G14E | -0.012 ± 0.09
G14D | -0.146 ± 0.14
G14N | 0.152 ± 0.1
G14Q | 0.007 ± 0.11
T15D | 0.018 ± 0.096
T15L | -0.055 ± 0.083
T15V | 0.023 ± 0.068
T15H | -0.128 ± 0.19
T15M | -0.264 ± 0.15
T15P | -0.252 ± 0.16
T15N | 0.117 ± 0.07
T15F | -0.218 ± 0.087
T15G | 0.081 ± 0.053
T15R | 0.064 ± 0.1

Variant | abundance fitness
T15A | 0.069 ± 0.082
T15K | 0.051 ± 0.21
G19R | -0.59 ± 0.1
G19E | -0.093 ± 0.11
G19W | -0.638 ± 0.082
G19K | -0.262 ± 0.15
G19V | -0.64 ± 0.079
G19F | -0.852 ± 0.13
G19S | -0.468 ± 0.062
G19Q | -0.437 ± 0.12
G19A | -0.292 ± 0.11
G19M | -0.442 ± 0.073
G19I | -0.644 ± 0.075
G19T | -0.741 ± 0.08
G19H | -0.478 ± 0.077
G19D | -0.125 ± 0.065
G19N | -0.264 ± 0.16
G19Y | -0.45 ± 0.12
G19L | -0.518 ± 0.13
E20I | -0.208 ± 0.063
E20N | -0.167 ± 0.064
E20F | -0.365 ± 0.085
E20Y | -0.395 ± 0.064
E20A | -0.163 ± 0.11

Variant | abundance fitness
E20G | -0.196 ± 0.049
E20C | -0.264 ± 0.056
E20W | -0.447 ± 0.075
E20S | -0.159 ± 0.063
E20V | -0.195 ± 0.049
E20R | -0.189 ± 0.055
E20K | -0.125 ± 0.1
E20L | -0.369 ± 0.088
E20M | -0.235 ± 0.15
E20T | -0.027 ± 0.082
E20D | -0.059 ± 0.059
E20H | -0.498 ± 0.15
N25T | -0.131 ± 0.076
N25L | -0.252 ± 0.077
N25K | 0.095 ± 0.067
N25D | -0.122 ± 0.067
N25C | -0.274 ± 0.061
N25W | -0.418 ± 0.066
N25M | -0.086 ± 0.092
N25Y | -0.253 ± 0.094
N25P | -0.4 ± 0.12
N25G | -0.157 ± 0.046
N25R | -0.1 ± 0.07
N25F | -0.249 ± 0.097

Variant | abundance fitness
N25A | -0.206 ± 0.053
N25I | -0.326 ± 0.095
N25S | -0.101 ± 0.082
N10Y | -0.989 ± 0.18
N10W | -0.549 ± 0.22
V18I | 0.155 ± 0.079
V18K | -0.154 ± 0.16
V18W | -0.132 ± 0.053
V18R | -0.081 ± 0.055
V18E | 0.039 ± 0.068
V18L | -0.131 ± 0.071
V18N | -0.06 ± 0.063
V18F | -0.165 ± 0.079
V18S | 0.076 ± 0.073
V18M | 0.091 ± 0.062
V18T | 0.118 ± 0.095
V18C | 0.074 ± 0.076
V18D | 0.147 ± 0.072
V18P | -0.372 ± 0.11
V18Y | -0.065 ± 0.078
V18G | -0.04 ± 0.059
V18Q | 0.108 ± 0.087
V18H | -0.047 ± 0.069
